The results in this text go back to article PMC2978110, “EBP1 Is a Novel E2F Target Gene Regulated by Transforming Growth Factor-β”.

Data set [1] has as its target T1, GST-E2F1 (UniProt Q01094 1-437). Nature of the data set: competition; 100-fold excess vs EBP1 -158 and -113 probes; substantially reduced; EMSA as in ref 34 (buffer, pH, temperature not given); 1.8 ug GST-E2F1 per reaction, 24 ng/ul ds mutant adenovirus E2 E2F-site oligo as nonspecific competitor. Conditions: protein: recombinant; blunt.
The target in data set [2] is T1, GST-E2F1. The data set can be described thus: competition; 100-fold excess vs EBP1 -158 and -113 probes; EMSA as in ref 34 (buffer, pH, temperature not given); 1.8 ug GST-E2F1 per reaction, 24 ng/ul ds mutant adenovirus E2 E2F-site oligo as nonspecific competitor. Conditions: protein: recombinant, blunt. On the technique in general: In EMSA bound probe runs differently from free probe, usually more slowly.

For data set [3], the target named is T1, GST-E2F1. Nature of the data set: EMSA; EMSA as in ref 34 (buffer, pH, temperature not given); 1.8 ug GST-E2F1 per reaction, 24 ng/ul ds mutant adenovirus E2 E2F-site oligo as nonspecific competitor. The note with it: protein: recombinant, label: 32P.
Data set [4] deals with T1, GST-E2F1. Nature of the data set: EMSA; additional low-mobility complex; EMSA as in ref 34 (buffer, pH, temperature not given); 1.8 ug GST-E2F1 per reaction, 24 ng/ul ds mutant adenovirus E2 E2F-site oligo as nonspecific competitor. Conditions: protein: recombinant; label: 32P; blunt.
The mark [5] stands for this setting: terminal G:G mismatch as printed.

T1 sequence (Q01094 whole entry): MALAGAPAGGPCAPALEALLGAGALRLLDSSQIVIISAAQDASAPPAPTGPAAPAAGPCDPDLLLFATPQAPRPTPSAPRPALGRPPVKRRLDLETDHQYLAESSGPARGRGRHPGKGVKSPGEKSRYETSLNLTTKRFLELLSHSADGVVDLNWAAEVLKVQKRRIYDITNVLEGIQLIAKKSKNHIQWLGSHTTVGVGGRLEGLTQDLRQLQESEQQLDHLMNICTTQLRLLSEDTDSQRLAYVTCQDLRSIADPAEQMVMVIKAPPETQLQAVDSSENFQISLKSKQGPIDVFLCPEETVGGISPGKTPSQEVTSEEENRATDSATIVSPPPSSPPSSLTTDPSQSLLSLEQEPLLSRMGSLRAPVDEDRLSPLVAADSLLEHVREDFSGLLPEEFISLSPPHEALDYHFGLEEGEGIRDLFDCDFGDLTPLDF

B1: TIMELESS E2F site (dsDNA)
DNA 1: CAGAAAATTCATAGCGCTGTGATTTTTAGATC
DNA 2: GATCTAAAAATCACAGCGCTATGAATTTTCTG
Regarding B1, in the data set with GST-E2F1 [1], the binding result is on record as “binds”.

B2: TIMELESS E2F site mutant (dsDNA)
DNA 1: CAGAAAATTCATAAAAATGTGATTTTTAGATC
DNA 2: GATCTAAAAATCACATTTTTATGAATTTTCTG
B2: in the data set with GST-E2F1 [2], the binding result is “no binding”.

B3: EBP1 -136 probe (-136 to -100) (dsDNA)
DNA 1: TAGTTCGAAGGCCCTCGAGAGCGGCTAGAGTCTGG
DNA 2: GCAGACTCTAGCCGCTCTCGAGGGCCTTCGAACTA
As to B3, the binding result in the data set with GST-E2F1 [3] (setting [5]) was “binds”.

B4: N-myc E2F site (dsDNA)
DNA 1: GATCCTTTTGGCGCGAAAGGCTTAGATC
DNA 2: GATCTAAGCCTTTCGCGCCAAAAGGATC
As for B4, in the data set with GST-E2F1 [2], the binding result was “binds”.

B5: EBP1 -166 (-113*) (dsDNA)
DNA 1: TTAGGAGCGCGAGAGGCAGGCTGGGAATTGTAGTTCGAAGGCCCTCGAGAAAAAATAGAGTC
DNA 2: GACTCTATTTTTTCTCGAGGGCCTTCGAACTACAATTCCCAGCCTGCCTCTCGCGCTCCTAA
On to B5, for which the binding result with GST-E2F1 [3] (blunt) is “binds”.

B6: EBP1 -155 probe (-155 to -120) (dsDNA)
DNA 1: GAGCTTCGAACTACAATTCCCAGCCTGCCTCTCGCGCTG
DNA 2: CAGCGCGAGAGGCAGGCTGGGAATTGTAGTTCGAAGCTC
For B6, the binding result in the data set with GST-E2F1 [3] (blunt) is given as “no binding”.

B7: EBP1 -166 (-158*) (dsDNA)
DNA 1: TTAGGAAAAAAAGAGGCAGGCTGGGAATTGTAGTTCGAAGGCCCTCGAGAGCGGCTAGAGTC
DNA 2: GACTCTAGCCGCTCTCGAGGGCCTTCGAACTACAATTCCCAGCCTGCCTCTTTTTTTCCTAA
Take B7: the binding result with GST-E2F1 [3] (blunt) is “binds”.

B8: EBP1 -166 (both*) (dsDNA)
DNA 1: TTAGGAAAAAAAGAGGCAGGCTGGGAATTGTAGTTCGAAGGCCCTCGAGAAAAAATAGAGTC
DNA 2: GACTCTATTTTTTCTCGAGGGCCTTCGAACTACAATTCCCAGCCTGCCTCTTTTTTTCCTAA
As to B8, the binding result with GST-E2F1 [3] (blunt) was “no binding”.

B9: EBP1 -166 wt (-166 to -104) (dsDNA)
DNA 1: TTAGGAGCGCGAGAGGCAGGCTGGGAATTGTAGTTCGAAGGCCCTCGAGAGCGGCTAGAGTC
DNA 2: GACTCTAGCCGCTCTCGAGGGCCTTCGAACTACAATTCCCAGCCTGCCTCTCGCGCTCCTAA
On to B9, for which the binding result with GST-E2F1 [4] is “binds”.

B10: DHFR E2F site (dsDNA)
DNA 1: CTAGAGCAATTTCGCGCCAAACTTGGATC
DNA 2: GATCCAAGTTTGGCGCGAAATTGCTCTAG
For the molecule B10, the binding result with GST-E2F1 [2] (label: 32P as probe) was “binds”.

B11: DHFR E2F site mutant (dsDNA)
DNA 1: CTAGAGCAATTTAAAAACAAACTTGGATC
DNA 2: GATCCAAGTTTGTTTTTAAATTGCTCTAG
On to B11, for which, in the data set with GST-E2F1 [2], the binding result was “no binding”.

B12: EBP1 -158* (dsDNA)
DNA 1: GCTTAGGAAAAAAAGAGGCAGGCTGGGAATTGTAGTTC
DNA 2: GAACTACAATTCCCAGCCTGCCTCTTTTTTTCCTAAGC
In the case of B12, the binding result in the data set with GST-E2F1 [3] (blunt) was “no binding”.

B13: EBP1 -168 probe (-168 to -130) (dsDNA)
DNA 1: GCTTAGGAGCGCGAGAGGCAGGCTGGGAATTGTAGTTC
DNA 2: GAACTACAATTCCCAGCCTGCCTCTCGCGCTCCTAAGC
Turning to B13, the binding result with GST-E2F1 [3] (blunt) is “binds”.

B14: EBP1 -113* (dsDNA)
DNA 1: TAGTTCGAAGGCCCTCGAGAAAAAATAGAGTCTGG
DNA 2: GCAGACTCTATTTTTTCTCGAGGGCCTTCGAACTA
For B14, the binding result in the data set with GST-E2F1 [3] (setting [5]) is given as “no binding”.
